From publication PMC8423902 (Cell Reports, 2021)

Biological target: trimeric SARS-CoV-2 ectodomain (S 6P trimer, residues 16-1206) (SARS-CoV-2, early isolate GenBank …, UniProt P0DTC2, stabilised)
Experiment: cryo-EM structure

B1: C118 Fab (Fab, V domains shown)
VH: QVQLVESGGGVVQPGRSLRLSCAASGFTFSNYAMHWVRQAPGKGLEWVAVISYDGSNKYYADSVKGRFTISRDNSKNTLYLQMNSLRAEDTAIYYCASGYTGYDYFVRGDYYGLDVWGQGTTVTVSS
VL: QPVLTQSPSASASLGASVKLTCTLSSGHSSYAIAWHQQQPEKGPRYLMKLNTDGSHSKGDGIPDRFSGSSSGAERYLTISSLQSEDEADYYCQTWGTGILVFGGGTKLTVL
**Q.** Does B1 bind?
**A.** Result: binds
